Test [1] deals with T1, gB-p17 (Human cytomegalovirus, strain AD169).
T1 chain: HRANETIYNTTLKYG
Put plainly: ELISA. The note with it: both partners purified.

Test [2] deals with T2, gB 15-mer library peptide, residues 69-83 (Human cytomegalovirus, strain AD169).
T2 construct: source: synthetic peptide, bought: JPT Peptide Technologies
T2 chain: ETIYNTTLKYGDVVG
Put plainly: ELISA. The note with it: both partners purified. (In an ELISA, binding on a coated surface is turned into a signal by an enzyme label.)

A further test deals with T3, gB P_(064-083) (Human cytomegalovirus, strain AD169).
T3 construct: source: synthetic peptide
T3 chain: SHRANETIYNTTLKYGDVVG
Nature of the test: ELISA. The note with it: both partners purified.

For test [3], the target named is T4, biotinylated full-length peptide, residues 59–88 of gB (Human cytomegalovirus AD169, UniProt P06473).
T4 construct: also called full-length peptide (white column); source: synthetic peptide, bought: JPT Peptide Technologies
T4 chain: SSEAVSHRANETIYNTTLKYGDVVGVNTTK
Put plainly: ELISA. Conditions: both partners purified.

For the next test, the target named is gB on HCMV whole virion (Human cytomegalovirus, virion strain …, UniProt P06473). Nature of the test: ELISA; inactivated virion (2 μg/mL) coated; 2-fold serially diluted IgG, Fab or (Fab)2, 90 min RT; HRP goat anti-human (Fab)2. The note with it: one partner purified.
In test [4] the target is T1, gB-p17. Nature of the test: crystal structure. Conditions: both partners purified.

Usually EC50 stands for the midpoint of the concentration-response curve. Read a high EC50 as a need for much substance.

Sequence of gB on HCMV whole virion (P06473 32-906): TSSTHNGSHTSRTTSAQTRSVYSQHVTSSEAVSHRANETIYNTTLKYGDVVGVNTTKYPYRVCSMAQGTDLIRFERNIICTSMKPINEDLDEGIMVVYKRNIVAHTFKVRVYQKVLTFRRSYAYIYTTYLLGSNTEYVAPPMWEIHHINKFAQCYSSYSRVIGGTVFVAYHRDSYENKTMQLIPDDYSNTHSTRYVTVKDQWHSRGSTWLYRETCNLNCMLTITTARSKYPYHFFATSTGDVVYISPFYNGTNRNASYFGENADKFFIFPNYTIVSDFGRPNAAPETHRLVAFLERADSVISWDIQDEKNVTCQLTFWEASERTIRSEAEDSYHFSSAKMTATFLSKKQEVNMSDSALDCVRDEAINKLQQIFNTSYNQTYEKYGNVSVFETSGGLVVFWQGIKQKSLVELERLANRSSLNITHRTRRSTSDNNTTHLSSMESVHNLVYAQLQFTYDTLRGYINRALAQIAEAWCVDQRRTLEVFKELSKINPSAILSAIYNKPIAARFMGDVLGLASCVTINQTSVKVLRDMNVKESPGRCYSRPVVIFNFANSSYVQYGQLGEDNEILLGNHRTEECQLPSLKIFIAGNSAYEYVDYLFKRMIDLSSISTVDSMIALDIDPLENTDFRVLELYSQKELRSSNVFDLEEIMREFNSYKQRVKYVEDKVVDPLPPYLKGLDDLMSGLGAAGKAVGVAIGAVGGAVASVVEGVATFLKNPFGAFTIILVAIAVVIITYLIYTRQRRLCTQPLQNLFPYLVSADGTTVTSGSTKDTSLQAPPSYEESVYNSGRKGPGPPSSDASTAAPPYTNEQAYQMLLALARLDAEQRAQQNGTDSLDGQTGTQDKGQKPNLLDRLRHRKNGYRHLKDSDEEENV

B1: 3–25 IgG (antibody, V domains shown)
VH: QVQLVESGGGVVQPGRSLRLSCAASGFTFSNHGLHWVRQPPGKGLEWVAVVSKDGTNEHYADSVRGRFTISRDNSKNTLYLLMKSLRLEDTAVYYCAREGYCGDDRCYSGQPDYWGQGILVTVSS
VL: EIVLTQFPATLSLSPGERATLSCRASQSVGRYLAWYQQKPGQAPRLLIYDSSNRATGVPARFSGSGSGTDFTLSISSLEPEDFAVYFCQQRSHWPPLTFGGGTKVEIK
For B1, the binding result (with gB-p17 [1]; in test [2]; with gB P_(064-083); in test [3]) was “binds” throughout. In the test with gB on HCMV whole virion, this molecule returned an EC50 of 18.9 nM.

B2: 3–25 Fab (Fab, V domains shown)
VH: QVQLVESGGGVVQPGRSLRLSCAASGFTFSNHGLHWVRQPPGKGLEWVAVVSKDGTNEHYADSVRGRFTISRDNSKNTLYLLMKSLRLEDTAVYYCAREGYCGDDRCYSGQPDYWGQGILVTVSS
VL: EIVLTQFPATLSLSPGERATLSCRASQSVGRYLAWYQQKPGQAPRLLIYDSSNRATGVPARFSGSGSGTDFTLSISSLEPEDFAVYFCQQRSHWPPLTFGGGTKVEIK
For B2, the binding result with gB-p17 [4] is “binds”. Besides, in the test with gB on HCMV whole virion, the EC50 worked out at 66.9 nM.

The values are drawn from paper PMC7425986 (PLoS Pathogens, 2020).
